Data reported in patent publication US20100047170.

Assays:
[1] = test system: DQ Gelatin from pig skin, fluorescein conjugate (Invitrogen)
[2] = test system: DQ collagen, type IV from human placenta, fluorescein conjugate (Invitrogen)
[3] = target: DQ Bovine Serum Albumin, fluorescent quenched (UniProt P02769)
[4] = target: DQ collagen, type I from bovine skin, fluorescein conjugate (Invitrogen) (UniProt P02453)

Measured: hydrolysis of FITC-quenched protein (fluorescence increase)

Sequence of DQ Bovine Serum Albumin, fluorescent quenched (P02769 25-607): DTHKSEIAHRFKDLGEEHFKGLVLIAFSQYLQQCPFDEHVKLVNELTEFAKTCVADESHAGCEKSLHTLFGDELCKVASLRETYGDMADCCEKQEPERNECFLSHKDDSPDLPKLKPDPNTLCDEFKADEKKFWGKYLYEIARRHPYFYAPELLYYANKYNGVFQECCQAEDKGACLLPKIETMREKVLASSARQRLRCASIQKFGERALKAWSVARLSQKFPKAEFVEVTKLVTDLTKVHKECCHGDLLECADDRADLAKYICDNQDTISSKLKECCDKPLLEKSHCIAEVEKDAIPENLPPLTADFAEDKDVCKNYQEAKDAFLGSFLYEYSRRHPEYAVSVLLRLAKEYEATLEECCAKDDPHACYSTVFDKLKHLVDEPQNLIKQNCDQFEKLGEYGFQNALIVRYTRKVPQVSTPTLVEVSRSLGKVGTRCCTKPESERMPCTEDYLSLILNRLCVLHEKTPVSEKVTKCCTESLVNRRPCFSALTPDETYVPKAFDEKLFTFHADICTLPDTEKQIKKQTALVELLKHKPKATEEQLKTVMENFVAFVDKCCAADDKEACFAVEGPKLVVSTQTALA
Sequence of DQ collagen, type I from bovine skin, fluorescein conjugate (Invitrogen) (P02453 162-1217, chain 1 of 2): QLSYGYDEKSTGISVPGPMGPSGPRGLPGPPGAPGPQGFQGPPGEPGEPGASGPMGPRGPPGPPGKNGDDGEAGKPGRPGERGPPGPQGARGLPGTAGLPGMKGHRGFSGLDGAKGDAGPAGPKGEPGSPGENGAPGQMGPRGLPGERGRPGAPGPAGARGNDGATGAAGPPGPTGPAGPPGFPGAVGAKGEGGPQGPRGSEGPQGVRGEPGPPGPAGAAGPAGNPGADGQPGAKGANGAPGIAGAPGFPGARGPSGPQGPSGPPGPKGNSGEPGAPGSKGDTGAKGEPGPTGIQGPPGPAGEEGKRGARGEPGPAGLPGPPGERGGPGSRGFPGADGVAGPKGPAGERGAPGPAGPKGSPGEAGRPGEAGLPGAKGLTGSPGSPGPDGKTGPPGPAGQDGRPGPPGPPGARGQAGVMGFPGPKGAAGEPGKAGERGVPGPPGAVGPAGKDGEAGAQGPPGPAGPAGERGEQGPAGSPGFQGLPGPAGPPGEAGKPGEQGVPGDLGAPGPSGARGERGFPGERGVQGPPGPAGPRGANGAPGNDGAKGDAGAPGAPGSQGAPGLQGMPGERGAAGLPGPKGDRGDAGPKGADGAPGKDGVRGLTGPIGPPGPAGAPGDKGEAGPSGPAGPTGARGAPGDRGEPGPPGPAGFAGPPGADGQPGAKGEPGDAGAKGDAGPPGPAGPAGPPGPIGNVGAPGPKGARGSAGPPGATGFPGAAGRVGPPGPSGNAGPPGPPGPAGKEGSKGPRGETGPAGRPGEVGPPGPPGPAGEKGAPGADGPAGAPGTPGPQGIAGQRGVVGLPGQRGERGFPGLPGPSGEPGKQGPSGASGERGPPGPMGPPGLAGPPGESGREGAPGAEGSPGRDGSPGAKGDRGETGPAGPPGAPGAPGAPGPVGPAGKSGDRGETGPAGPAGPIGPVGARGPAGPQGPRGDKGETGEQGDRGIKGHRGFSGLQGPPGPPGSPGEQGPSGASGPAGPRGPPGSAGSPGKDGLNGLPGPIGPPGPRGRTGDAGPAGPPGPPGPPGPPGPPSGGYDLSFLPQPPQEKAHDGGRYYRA
Sequence of DQ collagen, type I from bovine skin, fluorescein conjugate (Invitrogen) (P02453 other isoform, or with tags, fused parts or gaps, chain 2 of 2): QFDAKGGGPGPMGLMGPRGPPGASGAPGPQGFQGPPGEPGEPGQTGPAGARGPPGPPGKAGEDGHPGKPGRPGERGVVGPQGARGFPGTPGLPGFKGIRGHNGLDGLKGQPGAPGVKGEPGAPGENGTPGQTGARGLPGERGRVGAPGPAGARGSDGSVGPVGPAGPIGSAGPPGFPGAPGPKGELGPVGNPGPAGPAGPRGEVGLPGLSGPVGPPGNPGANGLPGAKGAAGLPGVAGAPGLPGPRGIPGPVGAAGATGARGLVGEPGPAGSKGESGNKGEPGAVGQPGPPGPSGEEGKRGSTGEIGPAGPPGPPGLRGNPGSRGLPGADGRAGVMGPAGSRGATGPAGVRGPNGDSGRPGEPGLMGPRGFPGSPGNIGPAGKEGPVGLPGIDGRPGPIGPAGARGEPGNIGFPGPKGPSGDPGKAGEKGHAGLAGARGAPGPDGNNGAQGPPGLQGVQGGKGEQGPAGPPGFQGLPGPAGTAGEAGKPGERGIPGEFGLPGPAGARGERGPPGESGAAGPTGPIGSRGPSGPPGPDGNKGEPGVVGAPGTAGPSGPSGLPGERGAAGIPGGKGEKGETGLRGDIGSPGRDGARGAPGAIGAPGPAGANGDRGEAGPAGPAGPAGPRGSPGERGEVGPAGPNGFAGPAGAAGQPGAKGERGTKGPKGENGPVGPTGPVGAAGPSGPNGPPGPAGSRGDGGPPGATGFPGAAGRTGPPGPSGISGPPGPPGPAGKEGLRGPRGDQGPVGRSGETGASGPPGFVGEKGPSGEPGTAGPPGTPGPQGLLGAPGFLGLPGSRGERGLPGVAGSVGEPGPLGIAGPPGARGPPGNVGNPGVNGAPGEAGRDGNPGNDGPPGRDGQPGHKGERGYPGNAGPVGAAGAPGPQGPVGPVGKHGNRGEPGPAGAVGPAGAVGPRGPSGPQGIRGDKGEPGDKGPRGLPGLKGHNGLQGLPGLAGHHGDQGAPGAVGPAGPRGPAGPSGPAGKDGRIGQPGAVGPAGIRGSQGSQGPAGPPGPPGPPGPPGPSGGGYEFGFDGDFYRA

His tagged extra cellular domain of Prostate Specific Membrane Antigen (PSMA), purified from S2 cells
no digestion of any of the proteins: all assays above
